Where two headings read alike, the source gives them in different places.
B1: H chain humanized version b/L chain humanized version b antibody (antibody, IgG4, V domains shown)
VH: QVQLLESGAVLARPGTSVKISCKASGFNIKDYYMHWVKQRPGQGLEWIGGNDPANGHSMYDPKFQGRVTITADTSTNTAYMELSSLRSEDTAIYYCARDSGYAMDYWGQGTLVTVSS
VL: DIQMTQSPSSLSASVGDRVTITCKASQDIKSFLSWYQQKPGKAPKLLIYYATSLADGVPSRFSGSGSGTDYTLTISSLQPEDFATYYCLQHGESPYTFGGGTKVEIK
notes: also called b-b; bb
B2: H chain chimeric/L chain chimeric antibody (chimeric ATR-5 antibody) (antibody, V domains shown)
VH: EVQLQQSGTNLVRPGALVKLSCKGSGFNIKDYYMHWVKQRPEQGLEWIGGNDPANGHSMYDPKFQGKASITADTSSNTAYLQLSSLTSEDTAVYFCARDSGYAMDYWGQGTSVTVSS
VL: DIKMTQSPSSMYASLGERVTITCKASQDIKSFLSWYQQKPWKSPKTLIYYATSLADGVPSRFSGSGSGQDYSLTINNLESDDTATYYCLQHGESPYTFGGGTKLEIK
notes: Mouse ATR-5 V regions joined to human C regions; Both an IgG1 (N5KG1(V)) and an IgG4 (N5KG4P) kappa form were made; also called ch-ch; cha-cha

Experiments:
[1] = molecular target: T1, TF/Factor VIIa complex (human, UniProt P13726 33-295; P08709 61-466)
[2] = molecular target: T2, soluble human TF (human TF 1-219 with the FLAG peptide linked to the C-terminal) (human, UniProt P13726 33-251); experiment: BIACORE; antibody captured on Protein G chip, soluble TF as analyte; mean ± SD, n = 3
T2 construct: Entry is the whole soluble construct (TF 1-219 followed by FLAG peptide M2); also called soluble TF; shTF
Procedure: Kinetic analysis of the antigen-antibody reaction was carried out using BIACORE. The recombinant Protein G was immobilized on a sensor chip, to which the antibody was coupled. The purified recombinant TF (a soluble TF in which the FLAG peptide was tagged at 1-219) was used as the antigen, and the-soluble TF prepared at various concentrations were used as analytes. From the sensorgram obtained, kinetic parameters (dissociation rate constants kdiss, and binding rate constants kass) were calculated.
As the running buffer, the HBS-EP buffer was used. Ten μl Of […] antibody solution was injected at a flow rate of 20 μl/min to immobilize antibody. The antibody was diluted with the HBS-EP buffer. Forty μl Of the soluble human TF solution at various concentrations were injected at a flow rate of 30 μl/min thereto. In the analysis, 80 seconds for injection was set as the binding phase and then changed to the HBS-EP buffer to set the dissociation phase of 120 seconds. After the dissociation phase was over, 10 μl of 20 mM hydrochloric acid was injected to reconstitute the sensor chip. The binding, dissociation, and reconstitution were set as one cycle, and the sensorgram was obtained for each antibody. The soluble human TF solution was prepared at concentrations of 250 nM, 125 nM, 62.5 nM, 31.3 nM, 15.6 nM, 7.81 nM, and 3.91 nM using the HBS-EP buffer. As the blank, the sensorgram obtained by injecting the HBS-EP buffer used for dilution was used.
The data file of interest was read in, and the comparison of reaction patterns by superscription was made using as the baseline the sensorgram of the HBS-EP buffer. Furthermore, using an analytical application software "BIAevaluation 2.1" (Pharmacia) exclusively for BIACORE that calculates kinetic parameters (binding rate constants kass and dissociation rate constants kdiss) by curve-fitting, kinetic analysis of interaction was performed. In order to determine the binding rate constants kass, the analysis model type 4 was used (BIAevaluation 2.1 Software Hand book, A1-A5). Based on the values calculated from each flow cell, kinetic parameters for each antibody were obtained.

[3] = molecular target: T3, human tissue factor (TF) on human bladder carcinoma cells J82 (human, UniProt P13726 33-295); experiment: cell ELISA on paraformaldehyde-fixed J82 cells; AP-conjugated goat anti-human IgGγ; absorbance 405/655 nm
T3 construct: whole, on cells; also called the antigen; J82 cells
Procedure: (§1) Cell ELISA plates for measurement of antigen binding were prepared as follows. Cells used were human bladder carcinoma cells J82 (ATCC HTB-1). To 60 wells of a 96-well cell culture plate, 1 ×10^5 J82 cells were inoculated. This was cultured (RPMI1640 medium containing 10% fetal bovine serum (GIBCO)) for one day in a CO_2 incubator to allow the cells to be attached thereto. After discarding the culture liquid, each well was washed twice with 300 μl PBS. 100 μl of PBS containing 4% paraformaldehyde (hereinafter referred to as PFA/PBS) was added to each well, and placed on ice for 10 minutes to immobilize the cells.
(§2) PFA/PBS was discarded, and each well was washed twice with 300 μl of PBS, and then blocked with 250 μl of DB. The culture supernatant or purified antibody was serially diluted with DB, 100 μl of which was added to each well. After incubating at room temperature for 2 hours followed by washing with RB, 100 μl of alkaline phosphatase-conjugated goat anti-human IgGγ antibody (BioSource) diluted 1000-fold with DB was added. After incubating for 1 hour followed by washing with RB, the substrate solution was added, and then absorbance at 405/655 nm was measured using the Microplate Reader (Bio-Rad).

[4] = molecular target: T3, human tissue factor (TF) on human …; experiment: as above; remark: listed apart in the source
Procedure: as §1, §2

[5] = molecular target: T1, TF/Factor VIIa complex; experiment: cell-based or functional assay
[6] = molecular target: T3, human tissue factor (TF) on human …; experiment: cell ELISA on paraformaldehyde-fixed J82 cells; AP-conjugated goat anti-human IgGγ; absorbance 405/655 nm; remark: listed apart in the source
Procedure: as §1, §2

[7] = molecular target: T3, human tissue factor (TF) on human …; experiment: as above; remark: listed apart in the source
Procedure: as §1, §2

[8] = molecular target: T3, human tissue factor (TF) on human …; experiment: as above; remark: listed apart in the source
Procedure: as §1, §2

T2 sequence (P13726 other isoform, or with tags, fused parts or gaps limits assumed): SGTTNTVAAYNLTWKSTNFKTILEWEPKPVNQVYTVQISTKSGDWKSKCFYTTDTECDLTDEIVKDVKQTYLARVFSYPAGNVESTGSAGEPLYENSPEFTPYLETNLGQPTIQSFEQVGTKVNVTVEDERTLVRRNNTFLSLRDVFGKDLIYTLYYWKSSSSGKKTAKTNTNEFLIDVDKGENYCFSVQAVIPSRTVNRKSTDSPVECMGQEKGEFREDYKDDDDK
T3 sequence (P13726 33-295): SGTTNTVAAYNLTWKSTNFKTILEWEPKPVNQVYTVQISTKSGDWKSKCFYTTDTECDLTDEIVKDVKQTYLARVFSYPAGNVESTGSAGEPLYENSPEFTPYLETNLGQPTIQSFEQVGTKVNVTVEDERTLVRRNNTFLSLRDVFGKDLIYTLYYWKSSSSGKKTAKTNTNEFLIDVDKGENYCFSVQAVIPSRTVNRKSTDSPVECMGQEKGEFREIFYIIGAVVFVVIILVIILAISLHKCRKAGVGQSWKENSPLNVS
T1 sequence (P13726 33-295 limits assumed, chain 1 of 2): as the sequence (P13726 33-295) above
T1 sequence (P08709 61-466 limits assumed, chain 2 of 2): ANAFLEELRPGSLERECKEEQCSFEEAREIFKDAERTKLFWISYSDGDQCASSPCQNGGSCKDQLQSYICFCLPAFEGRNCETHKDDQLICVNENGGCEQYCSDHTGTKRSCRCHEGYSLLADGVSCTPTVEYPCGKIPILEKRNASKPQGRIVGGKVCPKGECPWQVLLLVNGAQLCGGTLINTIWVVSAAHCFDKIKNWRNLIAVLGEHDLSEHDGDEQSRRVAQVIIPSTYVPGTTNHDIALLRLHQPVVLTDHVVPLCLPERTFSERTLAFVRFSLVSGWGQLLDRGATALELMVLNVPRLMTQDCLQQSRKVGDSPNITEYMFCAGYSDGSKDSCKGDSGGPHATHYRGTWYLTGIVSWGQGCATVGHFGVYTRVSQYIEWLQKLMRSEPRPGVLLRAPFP

Binder	IC50 (read off the curve) [1]	Kd [2]	koff [2]	kon [2]	EC50 (read off the curve) [3]	EC50 (read off the curve) [4]	IC50 (read off the curve) [5]	EC50 (read off the curve) [6]	EC50 (read off the curve) [7]	EC50 (read off the curve) [8]
B1	0.1 µg/mL	2.3 nM	0.000952 s⁻¹	415000 M⁻¹ s⁻¹	~0.07 µg/mL	~0.05 µg/mL	–	–	–	–
B2	–	1.09 nM	0.000506 s⁻¹	465000 M⁻¹ s⁻¹	~0.07 µg/mL	~0.04 µg/mL	~0.2 µg/mL	~0.04 µg/mL	~0.05 µg/mL	~0.08 µg/mL
